{"source": "paper PMC8967061", "molecular_target": "Factor H domains 19-20 (human) (UniProt P08603)", "sequence (P08603 1104-1231)": "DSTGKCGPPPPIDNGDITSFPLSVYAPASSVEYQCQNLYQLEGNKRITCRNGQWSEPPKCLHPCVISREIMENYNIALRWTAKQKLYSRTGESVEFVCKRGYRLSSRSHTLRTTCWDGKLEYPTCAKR", "test": "MST; FH19-20 labelled with RED-tris-NTA dye (300 nM stock, mixed 1:1 with ligand), FhbA proteins titrated, PBS/0.025% Tween-20, 22 C", "data": [{"substance": "BhFhbA Phe154Ala (from UniProt W5SB08 44-202) (domain or fragment)", "values": [{"measurement": "Kd", "value": 6, "unit": "µM"}]}, {"substance": "FhbA homologue from Borrelia duttonii, wild type (natural protein)", "values": [{"measurement": "Kd", "value": 1.06, "unit": "µM"}]}]}
